Measured values as given in patent US20180155451A1 (published 2018).

T1: FcγRIIa R (extracellular domain, C-terminal His tag) (human, UniProt P12318 34-217)
T1 construct: extracellular domain; also called FcgRIIa R type; 2aR; not shown: His tag attached to the C terminus
T1 sequence (looked up): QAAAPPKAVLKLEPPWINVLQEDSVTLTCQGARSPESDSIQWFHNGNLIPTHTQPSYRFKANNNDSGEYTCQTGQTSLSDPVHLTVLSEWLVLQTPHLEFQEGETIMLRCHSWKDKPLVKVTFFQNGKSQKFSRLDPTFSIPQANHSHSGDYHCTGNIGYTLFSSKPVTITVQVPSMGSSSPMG

T2: FcγRIIb (extracellular domain, C-terminal His tag) (human, UniProt P31994 43-217)
T2 construct: extracellular domain; also called FcgRIIb; 2b; not shown: His tag attached to the C terminus
T2 sequence (looked up): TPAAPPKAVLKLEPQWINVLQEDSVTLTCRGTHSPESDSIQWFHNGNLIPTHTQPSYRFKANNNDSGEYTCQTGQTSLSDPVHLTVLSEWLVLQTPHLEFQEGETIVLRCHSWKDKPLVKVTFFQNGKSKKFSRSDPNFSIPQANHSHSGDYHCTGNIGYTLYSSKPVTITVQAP

T3: FcγRIIb extracellular domain with C-terminal His tag (human, UniProt P31994 43-217)
T3 construct: extracellular domain; Soluble receptor expressed in FreeStyle293 cells, used as analyte in Biacore; also called FcgRIIb; CD32B; not shown: His tag at the C terminus
T3 sequence (looked up): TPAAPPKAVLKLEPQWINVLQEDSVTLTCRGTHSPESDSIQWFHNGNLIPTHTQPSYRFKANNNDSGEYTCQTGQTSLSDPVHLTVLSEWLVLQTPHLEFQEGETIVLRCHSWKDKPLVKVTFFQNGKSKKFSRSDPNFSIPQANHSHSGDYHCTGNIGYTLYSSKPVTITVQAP


Experiments:
[1] = biological target: T1, FcγRIIa R (extracellular domain, …); assay: ratio of He/Con_2aR to He/Con_2b (FcγRIIb); SPR relative binding
Experimental: (§1) The heterodimerized antibodies He Abs in which one of the H chains was introduced with an alteration were assayed for their binding activities to each activating FcγR and inhibitory FcγR according to the method described in Example 4. […] The activating FcγRs in FIGS. 26, 27, 28, and 29 are FcγRIa, FcγRIIa (R), FcγRIIa (H), and FcγRIIIa, respectively.
(§2) Analysis of interaction between objective antibody and the FcγR was carried out using Biacore T100 (GE Healthcare). HBS-EP+ (GE Healthcare) was used as the running buffer, and the measurement temperature was set to 25° C. Chips produced by immobilizing the antigen peptide by the amine coupling method to a Series S Sencor Chip CM5 (GE Healthcare), or alternatively, chips produced by allowing preliminarily biotinylated antigen peptides to interact with and immobilize onto a Series S Sensor Chip SA (certified) (GE Healthcare) were used. Antibodies of interest were captured onto an antigen peptide-immobilized chip, and allowed to interact to each FcγR diluted with running buffer. To regenerate and repeatedly use the chip, the antibodies captured on the chip were washed off by reacting 10 mM glycine-HCl, pH 1.5.

[2] = biological target: T2, FcγRIIb (extracellular domain, …); assay: SPR (Biacore), antibody captured on antigen-peptide chip, FcγR as analyte; relative binding amount
Experimental: as §1, §2

[3] = biological target: T1, FcγRIIa R (extracellular domain, …); assay: as above
Experimental: as §1, §2

[4] = biological target: T3, FcγRIIb extracellular domain with …; assay: SPR (Biacore), antibody captured via antigen peptide, FcγR as analyte; binding relative to GpH7-A5/GpH7-B3/GpL16-k0 = 100
[5] = biological target: T4, FcγRIa extracellular domain with C-terminal His tag (human, UniProt P12314 16-292); assay: as above
T4 construct: extracellular domain; Soluble receptor expressed in FreeStyle293 cells, used as analyte in Biacore; also called FcgRI; CD64; not shown: His tag at the C terminus
T4 sequence (P12314 16-292): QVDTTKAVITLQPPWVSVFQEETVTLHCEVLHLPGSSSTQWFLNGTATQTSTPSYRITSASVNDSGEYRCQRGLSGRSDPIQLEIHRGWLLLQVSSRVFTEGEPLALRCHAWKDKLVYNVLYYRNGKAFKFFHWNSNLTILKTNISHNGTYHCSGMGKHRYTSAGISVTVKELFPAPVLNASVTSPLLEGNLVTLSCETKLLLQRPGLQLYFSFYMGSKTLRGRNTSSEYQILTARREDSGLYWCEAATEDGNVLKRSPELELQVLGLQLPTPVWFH

[6] = biological target: T4, FcγRIa extracellular domain with …; assay: SPR (Biacore); ratio of He/Con_1a (FcγRIa) to He/Con_2b (FcγRIIb) of the same antibody

Binder | He_2aR/2b (IIaR/IIb) [1] | He/Con_2b [2] | He/Con_2aR [3] | He/Con_2b [4] | He/Con_1a [5] | Ia/IIb He_1a/2b [6]
GpH7-A5/GpH7-B3 variant D265_06M/GpL16-k0 (antibody, human IgG1, kappa, Heterodimerized anti-glypican-3 IgG1; alteration in only one H chain (GpH7-B3 side); also called He Ab) heavy 1: not shown heavy 2: not shown light: DIVMTQSPLSLPVTPGEPASISCQASESLVHSNRNTYLHWYLQKPGQSPQLLIYKVSNRFSGVPDRFSGSGSGTDFTLKISRVEAEDVGVYYCSQNTHVPPTFGQGTKVEIERTVAAPSVFIFPPSDEQLKSGTASVVCLLNNFYPREAKVQWKVDNALQSGNSQESVTEQDSKDSTYSLSSTLTLSKADYEKHKVYACEVTHQGLSSPVTKSFNRGEC | 1.58 | 10 % of control (GpH7-A5/GpH7-B3/GpL16-k0 = 100) | 15.8 % of control (GpH7-A5/GpH7-B3/GpL16-k0 = 100) | – | – | –
GpH7-A5/GpH7-B3 variant D265_03V/GpL16-k0 (antibody, human IgG1, kappa, Heterodimerized anti-glypican-3 IgG1; alteration in only one H chain (GpH7-B3 side); also called He Ab) heavy 1: not shown heavy 2: not shown light: DIVMTQSPLSLPVTPGEPASISCQASESLVHSNRNTYLHWYLQKPGQSPQLLIYKVSNRFSGVPDRFSGSGSGTDFTLKISRVEAEDVGVYYCSQNTHVPPTFGQGTKVEIERTVAAPSVFIFPPSDEQLKSGTASVVCLLNNFYPREAKVQWKVDNALQSGNSQESVTEQDSKDSTYSLSSTLTLSKADYEKHKVYACEVTHQGLSSPVTKSFNRGEC | 1.8 | 3.2 % of control (GpH7-A5/GpH7-B3/GpL16-k0 = 100) | 5.8 % of control (GpH7-A5/GpH7-B3/GpL16-k0 = 100) | – | – | –
GpH7-A5/GpH7-B3 variant D265_04F/GpL16-k0 (antibody, human IgG1, kappa, Heterodimerized anti-glypican-3 IgG1; alteration in only one H chain (GpH7-B3 side); also called He Ab) heavy 1: not shown heavy 2: not shown light: DIVMTQSPLSLPVTPGEPASISCQASESLVHSNRNTYLHWYLQKPGQSPQLLIYKVSNRFSGVPDRFSGSGSGTDFTLKISRVEAEDVGVYYCSQNTHVPPTFGQGTKVEIERTVAAPSVFIFPPSDEQLKSGTASVVCLLNNFYPREAKVQWKVDNALQSGNSQESVTEQDSKDSTYSLSSTLTLSKADYEKHKVYACEVTHQGLSSPVTKSFNRGEC | 1.79 | 3.2 % of control (GpH7-A5/GpH7-B3/GpL16-k0 = 100) | 5.6 % of control (GpH7-A5/GpH7-B3/GpL16-k0 = 100) | – | – | –
GpH7-A5/GpH7-B3 variant D265_08L/GpL16-k0 (antibody, human IgG1, kappa, Heterodimerized anti-glypican-3 IgG1; alteration in only one H chain (GpH7-B3 side); also called He Ab) heavy 1: not shown heavy 2: not shown light: DIVMTQSPLSLPVTPGEPASISCQASESLVHSNRNTYLHWYLQKPGQSPQLLIYKVSNRFSGVPDRFSGSGSGTDFTLKISRVEAEDVGVYYCSQNTHVPPTFGQGTKVEIERTVAAPSVFIFPPSDEQLKSGTASVVCLLNNFYPREAKVQWKVDNALQSGNSQESVTEQDSKDSTYSLSSTLTLSKADYEKHKVYACEVTHQGLSSPVTKSFNRGEC | 1.46 | 4.6 % of control (GpH7-A5/GpH7-B3/GpL16-k0 = 100) | 6.6 % of control (GpH7-A5/GpH7-B3/GpL16-k0 = 100) | – | – | –

Now from value to binder:

He_2aR/2b (IIaR/IIb) [1] | He/Con_2b [2] | He/Con_2aR [3] | He/Con_2b [4] | He/Con_1a [5] | Ia/IIb He_1a/2b [6] | Binder
– | – | – | 49.4 % of control (GpH7-A5/GpH7-B3/GpL16-k0 = 100) | 88.1 % of control (GpH7-A5/GpH7-B3/GpL16-k0 = 100) | 1.78 | GpH7-A5/GpH7-B3 variant S239_16H/GpL16-k0 (antibody, human IgG1, kappa, Heterodimerized anti-glypican-3 IgG1; substitution in only one H chain; also called S239H; He Ab) heavy 1: not shown heavy 2: not shown light: DIVMTQSPLSLPVTPGEPASISCQASESLVHSNRNTYLHWYLQKPGQSPQLLIYKVSNRFSGVPDRFSGSGSGTDFTLKISRVEAEDVGVYYCSQNTHVPPTFGQGTKVEIERTVAAPSVFIFPPSDEQLKSGTASVVCLLNNFYPREAKVQWKVDNALQSGNSQESVTEQDSKDSTYSLSSTLTLSKADYEKHKVYACEVTHQGLSSPVTKSFNRGEC
– | – | – | 24.7 % of control (GpH7-A5/GpH7-B3/GpL16-k0 = 100) | 68 % of control (GpH7-A5/GpH7-B3/GpL16-k0 = 100) | 2.75 | GpH7-A5/GpH7-B3 variant S239_11K/GpL16-k0 (antibody, human IgG1, kappa, Heterodimerized anti-glypican-3 IgG1; substitution in only one H chain; also called S239K; He Ab) heavy 1: not shown heavy 2: not shown light: DIVMTQSPLSLPVTPGEPASISCQASESLVHSNRNTYLHWYLQKPGQSPQLLIYKVSNRFSGVPDRFSGSGSGTDFTLKISRVEAEDVGVYYCSQNTHVPPTFGQGTKVEIERTVAAPSVFIFPPSDEQLKSGTASVVCLLNNFYPREAKVQWKVDNALQSGNSQESVTEQDSKDSTYSLSSTLTLSKADYEKHKVYACEVTHQGLSSPVTKSFNRGEC
– | – | – | 39.1 % of control (GpH7-A5/GpH7-B3/GpL16-k0 = 100) | 86.5 % of control (GpH7-A5/GpH7-B3/GpL16-k0 = 100) | 2.21 | GpH7-A5/GpH7-B3 variant S239_12R/GpL16-k0 (antibody, human IgG1, kappa, Heterodimerized anti-glypican-3 IgG1; substitution in only one H chain; also called S239R; He Ab) heavy 1: not shown heavy 2: not shown light: DIVMTQSPLSLPVTPGEPASISCQASESLVHSNRNTYLHWYLQKPGQSPQLLIYKVSNRFSGVPDRFSGSGSGTDFTLKISRVEAEDVGVYYCSQNTHVPPTFGQGTKVEIERTVAAPSVFIFPPSDEQLKSGTASVVCLLNNFYPREAKVQWKVDNALQSGNSQESVTEQDSKDSTYSLSSTLTLSKADYEKHKVYACEVTHQGLSSPVTKSFNRGEC
